Laboratory results published in the supplement of paper PMC9170038.

System: K4 kissing-loop RNA reporter
Experiment: apparent KD of K4 kissing-loop reporter; higher = weaker reporter binding
Conditions: Eterna round: R107; input ligand: none
Protocol: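 RNA-MaP round R107: designed RNA switches with theophylline, tryptophan, arginine or FMN aptamers are transcribed on-chip within common flanks. They are titrated with a labelled K4 kissing-loop RNA reporter in RNA-MaP buffer (100 mM Tris pH 7.5, 80 mM KCl, 4 mM MgCl2), without ligand or with the indicated ligand. Median apparent KD per design.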
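Further: bound reporter read as fluorescence of individual clusters on recovered sequencing chips by microscopy, with normalized cluster intensities fitted with a binding model.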

Row | Sequence | apparent KD of K4 kissing-loop reporter
1 | AAGUGAUGUUGUAGUGAUGUUGUGAUGUUGCAGGAUAUAUAGUGAUGUAGAAGGGUAAGUACUUAUUUUUUUUUUGAGUUAUGUU [crrczrmullin] | 62.8 nM
2 | UCGUCCGGAUUACUCGUGGUCAUGGUCGAUACCAGUAGAUUAAUCUACCCUUGGCAGCGACAUGAGUGAUGUUCAUGUGCAAUGA [KL-XTheo-A6 #analogue] | 360 nM
3 | GGGAGUAGUGCGGCCGCCACUGAGAAAGAAGAAGAAUAUAGUGAUGUUAUAUAGGAAAGGAAGAACAGGACCGGGCAUUAGAUUU [SSTRyptB.F] | 251 nM
4 | AGGCGACGCAAAGGAUAUCACGGUUUUCUAGUGAUGUUAGUCAAGACCGACCGAGAAAUCAGUGUUUGAGAAGGUUGAACGUCGC [theeternabot_sameState_KL_FMN_B_46] | 1870 nM
5 | AAGCAGUCACGCGAAGCCAUCGAAGAUGGUCGAGGACCGGUACGGCCGCCACUCGGAGUGAUGUUCCGAAGACUGCAAAAUAAAA | 333 nM
6 | AAGCAGUCACUCGAAUCCAUCGAAGAUGGACGAGGACCGGUACGGCCGCCACUCGGAGUGAUGUUCCGAAGACUGCAAAAUAAAA | 342 nM
7 | ACCUGUGACUGAAGGAGCGUCUACUCCAGAGGAUGGAGUGAUGUUCCACUUUAAUGGAGUGGACAGGUAGGUCGCAGUCAUAGGA [Arg B SS t6] | 108 nM
8 | CCUUGGGCACGCCCACUAGGAAGCUAGUCUAAGGAUAUCGACUGGACGAGAAGGUAGACGGACCCGAGUGAUGUUCGGACAUAGG [theeternabot_sameState_KL_FMN_A_1] | 215 nM
9 | UCGGACCCUGGAGGAUAUGAGUCGAGUGAUGUUCGGCGGUCCAUGCCGGUGCGGCGUUAUGCCCUUUUAGAAGGCCAGGGUCCGA [#2 Exclusion - FMN B Attempt #11 (HarryS)] | 196 nM
10 | GGUAGCGCUAGAGAUACCAGUCAUAUCGCUCUGGAGUGAUGUUCCGGAACGUGCGGAGAAGACCCUUGGCAGCUCAUGACGGUGU [Exclusion Theophylline B GF 4] | 224 nM
11 | UAUUGAUUGUCAGGAUAUCGUAAACGAGUGAUGUUCGUAUAUUGACGAUAGUCAAUUCUAUCUGAACGAGAAGGGACAUUAUUUA [JR_SSFMNB_Sub009] | 389 nM
12 | AUUUUUUACAGAAGGAGCGUGUUUUUAUAAUCAUUUAUCUUAGCGAGUGAUGUUCGCUUUACACAGGUAGGUCGCUGUUUAUUUA [JR_Nu_ExcArginiB_Sub028] | 121 nM
13 | UGUGCUGUGUACUGUAAUGUUAUGCGGGAUACCAGAGUCUUUUUAUUCCCUUGGCAGCUUGAGUGAUGUUUGAUGCUGUUCUUGU [kiokmullin] | 370 nM
14 | AACUGCCAAGGAACAUUGUAAGAAGGUGAUACCAGCAUCGAAAGAUGCCCUUGGCAGCACCAACUUGCAGUGAUGUUGCAAGUAA [Design5] | 165 nM
15 | GGGACGCUAGCUCGAAUGUAGUGAUUUGAUACCAGCCUGUCACUUGGCCCUUGGCAGCAAAGCAGAGUGAUGUUCUGACCAACCU [theeternabot_sameState_KL_Theo_A_47] | 235 nM
16 | GGUGCUGUCUGUGCCGCCUUCCUCGUUCCUCGAGGACCGGUACGGCCGCCACUCGAGUGAUGUUUGGGUAGCGAUCCCUGCUAGC [Bdazzled - #15 Exc. Tryptophan A] | 1180 nM
17 | UGUGUUUACCUGACCCAGUGAUGUUGGGAAGGAGCGUGCGAAAGCACAGGUAGGUCGCUCAACCUAAAGUCAGGUGAGCACUAAA [#SwitchBubble 9 #K4Early] | 447 nM
18 | CUCGAGUGAUGUUCGUUUAUUUAUACAGAUACCAGUGAAUUUUAACACCCUUGGCAGCUGGUUGUAUCUUUGUUUUUUACACAAG [JR_Nu_ExcTheophyA_Sub024] | 211 nM
19 | UGUGUUUACCUGACUCAGUGAUGUUGAGAAGGAGCGUGAGAAAGCACAGGUAGGUCGCUCAACCUAAAUUCAGGUGAGCACUAAA | 238 nM
20 | GACGGGCAGUGAUGUUGCCGGUCUCUUGGACGAGGACCGGUACGGCCGCCACUCGAUCUGAUGCGGGAAUUGCAUCUUUUAAUAA [Raorbirabe] | 185 nM
21 | GCUACCUAUGCAGGAUAUGGUAUUACGAGUGAUGUUCGAGGCAUAUAGAGUGAUGUUCUAUAUCCACCAGAAGGGCAUAGGUAGC | 179 nM
22 | GUAGCACUCGGUAGUGAUGUUAUCGAGGACAAGGAUAUCAUCUCAAUGAGAAGGUGUCCUUGAUAACAGCUACGGGAAUAUCCCA [Omei KL FMN A Exc D v4] | 134 nM

Same assay, conditions: Eterna round: R107; input ligand: theophylline 20 uM

Row | Sequence | apparent KD of K4 kissing-loop reporter
23 | CCAUUCUGUUACGAUACCAGUCAAAGAUAUUUGAUCAAUACCCUCGCCGAGUGAUGUUCGGACCCUUGGCAGCGUCUGGGACAGG [fdxxvmullin] | 427 nM
24 | UGACUGGAUUGAAGGAGCGCUAAACUCCUAGUGAUGUUAGGGACACAAGACAAAGUCUUGAGGCAGGUAGGUCGCAAUCUAGUCU [FiskerMod 5 - Jieux - Same State - Arginine B] | 310 nM
25 | UUAGUACAUAGAGAUACCAGCCAUCGAAGUGAUGUUUCGAGAAAUAAUGAUGUUGGUAUAGGCCCUUGGCAGCUCUAUGUACAUU [AK1 Exc Theophylline B] | 94.7 nM
26 | CUUGAUCGAGGAAGGAGCGGGCCGUCAUUGAGCGCAGUGAUGUUGCGGUCGACUAGUCGAGCCCAGGUAGGUCGCCUGGAGUAAG [Xeveis] | 160 nM
27 | GGACAAGUUUCCGAUACCAGCCUUUAUGCUGGACUAGCUUGAUCAGUGGCUAGUGAUGUUGGCCCUUGGCAGCGGGACUCUUCGG [theeternabot_exclusion_KL_Theo_B_10] | 238 nM
28 | AAUGUACAGGGAAGGAGCGUCGUCCAGUGAUGUUGGAGUUAAAUACCAGUGAUGUUGGUUAGACAGGUAGGUCGCCCUAAAGUGC [Exclusion Arginine B Gf 3] | 95 nM
29 | AGGUUUUGAUUAGGAUAUGCACUGACGACGAGAAUAUAGUGAUGUUAUAUAAUAGGAAUUAGUAGAGUAGAAGGGAUUGAGGUUU [SSFMNB.W] | 342 nM
30 | ACUACGAAGACGGCCGCCACUGAUAUUCGUAGAUCCAUCAUUACAUGAGUGAUGUUCAUGUAUAUCAGGACCGGGUCAAGAUGGU [KL-XTryp-B17 #analogue] | 162 nM
31 | UUGUUUCCGACGGCCGCCACUGGUUUCUUUGUUGUAGUGAUGUUGCGGUGGAAUGAUAGCGUUAACAGGACCGGGUCGGUGAGAC [theeternabot_sameState_KL_Trp_B_42] | 580 nM
32 | AUGGGUUUGGGAGGAUAUCCUUCCCACGUCGAAGUACCGUGCUUGAUGGAGUGAUGUUCGAUCAGAGGAGAAGGCCCGGAUUUAU [Same State FMN B GF21] | 806 nM
33 | AGACCACAAAGUGGUCAGUGUUCGCUCCGGCGAGGACCGGUACGGCCGCCACUCGCGAGUGAUGUUCGCGAGCGGAGCGAACACA [Omei KL Tryp A Exc A v2] | 88.9 nM
34 | AAUUAAUACAGAAGGAGCGUGAAAUUAUCUAUUUUUUUUUUAGCUAGUGAUGUUAGCAUUUCACAGGUAGGUCGCUGUAUAUUUA [JR_SSArginiB_Sub009] | 149 nM
35 | CGCGUGGGUUUGAGAGGGUUUGUGCGAAGUGAGGAUAUUUAGGGAGAAAGAAGGCACUAUAAAAUAUAGUGAUGUUAUAUAAGGG [SSFMNA.K] | 225 nM
36 | AAAAUUGCGGUCGAAUUAACUUCUUGCAUACGAGGACCGGUACGGCCGCCACUCGAGUCAAGUGAUGUUUGAUAAUCUAUUAUUA [JR_ExcTryptoA_Sub011] | 301 nM
37 | UGGGUGUAGUGAUGUUAUAUAGAGAGUGAUACCAGCGUAGAGAGAUGCCCUUGGCAGCAUAGAAGAGUAUCAUUGGAGGAGGAGG [ExTheophyl.Az] | 730 nM
38 | CGCGCUGGUUGAGAGGUUGGCGCGAAUGAUACCAGUAUAUAAGAAUACCCUUGGCAGCAUAAGAAAGAUAUAGUGAUGUUGUAUA [SSTheophA.H] | 448 nM
39 | UUCUAGCCGAAAGGCUAGUCGGCUUCAGAUACCAGUCGCGAAAGCGACCCUUGGCAGCUGUGUAGUGAUGUUGCAAAGAAAGCCG | 262 nM

Row | Sequence | apparent KD of K4 kissing-loop reporter
40 | ACAUGAGUGAUGUUCAUGUGGAGCAGGGUACGAGGACCGGUACGGCCGCCACUCGAGAGUUAUGACGAGUUAAUGGCAACGAUGU [KL-Tryp-A8 #analogue] | 96.3 nM
41 | UUGCAAAAGUCGGCCGCCACUCCGGGCCCUAUAAAUGGGCGCAGUGAUGUUGCGGCUAGGCCUCUGAGGACCGGGACUUUGUAGC [Aenonlebe] | 111 nM
42 | UGACUGGACUGAAGGAGCGAGCGAGACAAAGUCUCGAAAUCCUAGUGAUGUUAGGAAAUAACUCAGGUAGGUCGCAGUCUAGUCU [ArgBS 9 #SwitchBubble #StaticStem] | 170 nM
43 | GUGGUACAGGCGGCCGCCACUAGUGAUGUUAGUGAUAGAAGAUAUAGUAUAUAUCGGCAUUUAGUUAGGACCGGGCCUGGUGGUG [wwwrcmullin] | 367 nM
44 | CGGCUCAAUCCUAGUAUUAAGAGGGAGUUGCGAGGACCGGUACGGCCGCCACUCGAAGUAGUUUGGCCAGUGAUGUUGGUCUUAC [Mabeleon] | 204 nM
45 | AAGUGAUGUUGUAGUGAUGUUGUGAUGUUGCAGGAUAUAUAGUGAUGUAGAAGGGUAAGUACUUAUUUUUUUUUUGAGUUAUGUU [crrczrmullin] | 45.9 nM
46 | UCGUCCGGAUUACUCGUGGUCAUGGUCGAUACCAGUAGAUUAAUCUACCCUUGGCAGCGACAUGAGUGAUGUUCAUGUGCAAUGA [KL-XTheo-A6 #analogue] | 492 nM
47 | GGGAGUAGUGCGGCCGCCACUGAGAAAGAAGAAGAAUAUAGUGAUGUUAUAUAGGAAAGGAAGAACAGGACCGGGCAUUAGAUUU [SSTRyptB.F] | 232 nM
48 | AGGCGACGCAAAGGAUAUCACGGUUUUCUAGUGAUGUUAGUCAAGACCGACCGAGAAAUCAGUGUUUGAGAAGGUUGAACGUCGC [theeternabot_sameState_KL_FMN_B_46] | 756 nM
49 | AAGCAGUCACGCGAAGCCAUCGAAGAUGGUCGAGGACCGGUACGGCCGCCACUCGGAGUGAUGUUCCGAAGACUGCAAAAUAAAA | 314 nM
50 | AAGCAGUCACUCGAAUCCAUCGAAGAUGGACGAGGACCGGUACGGCCGCCACUCGGAGUGAUGUUCCGAAGACUGCAAAAUAAAA | 345 nM
51 | ACCUGUGACUGAAGGAGCGUCUACUCCAGAGGAUGGAGUGAUGUUCCACUUUAAUGGAGUGGACAGGUAGGUCGCAGUCAUAGGA [Arg B SS t6] | 88.7 nM
52 | CCUUGGGCACGCCCACUAGGAAGCUAGUCUAAGGAUAUCGACUGGACGAGAAGGUAGACGGACCCGAGUGAUGUUCGGACAUAGG [theeternabot_sameState_KL_FMN_A_1] | 179 nM
53 | UCGGACCCUGGAGGAUAUGAGUCGAGUGAUGUUCGGCGGUCCAUGCCGGUGCGGCGUUAUGCCCUUUUAGAAGGCCAGGGUCCGA [#2 Exclusion - FMN B Attempt #11 (HarryS)] | 207 nM
54 | GGUAGCGCUAGAGAUACCAGUCAUAUCGCUCUGGAGUGAUGUUCCGGAACGUGCGGAGAAGACCCUUGGCAGCUCAUGACGGUGU [Exclusion Theophylline B GF 4] | 281 nM
55 | UAUUGAUUGUCAGGAUAUCGUAAACGAGUGAUGUUCGUAUAUUGACGAUAGUCAAUUCUAUCUGAACGAGAAGGGACAUUAUUUA [JR_SSFMNB_Sub009] | 351 nM
